Laboratory results: the DeepSol protein solubility set

Assay: soluble on expression in E. coli; label from the status in PepcDB or PDB records

Soluble on expression in E. coli, soluble:
MGGSHHHHHHRSESTVTEELKEGIDAVYPSLVGTADSKAEGIKNYFKLSFTLPEEQKSRTVGSEAPLKDVAQALSSRARYELFTEKETANPAFNGEVIKRYKELMEHGEGIADILRSRLAKFLNTKDVGKRFAQGTEANRWVGGKLLNIVEQDGDTFKYNEQLLQTAVLAGLQWRLTATSNTAIKDAKDVAAITGIDQALLPEGLVEQFDTGMTLTEAVSSLAQKIESYWGLSRNPNAPLGYTKGIPTAMAAEILAAFVESTDVVENIVDMSEIDPDNKKTIGLYTITELDSFDPINSFPTAIEEAVLVNPTEKMFFGDDIPPVANTQLRNPAVRNTPEQKAALKAEQATEFYVHTPMVQFYETLGKDRILELMGAGTLNKELLNDNHAKSLEGKNRSVEDSYNQLFSVIEQVRAQSEDISTVPIHYAYNMTRVGRMQMLGKYNPQSAKLVREAILPTKATLDLSNQNNEDFSAFQLGLAQALDIKVHTMTREVMSDELTKLLEGNLKPAIDMMVEFNTTGSLPENAVDVLNTALGDRKSFVALMALMEYSRYLVAEDKSAFVTPLYVEADGVTNGPINAMMLMTGGLFTPDWIRNIAKGGLFIGSPNKTMNEHRSTADNNDLYQASTNALMESLGKLRSNYASNMPIQSQIDSLLSLMDLFLPDINLGENGALELKRGIAKNPLTITIYGSGARGIAGKLVSSVTDAIYERMSDVLKARAKDPNISAAMAMFGKQAASEAHAEELLARFLKDMETLTSTVPVKRKGVLELQSTGTGAKGKINPKTYTIKGEQLKALQENMLHFFVEPLRNGITQTVGESLVYSTEQLQKATQIQSVVLEDMFKQRVQEKLAEKAKDPTWKKGDFLTQKELNDIQASLNNLAPMIETGSQTFYIAGSENAEVANQVLATNLDDRMRVPMSIYAPAQAGVAGIPFMTIGTGDGMMMQTLSTMKGAPKNTLKIFDGMNIGLNDITDASRKANEAVYTSWQGNPIKNVYESYAKFMKNVDFSKLSPEALEAIGKSALEYDQRENATVDDIANAASLIERNLRNIALGVDIRHKVLDKVNLSIDQMAAVGAPYQNNGKIDLSNMTPEQQADELNKLFREELEARKQKVAKA
MAHHHHHHMENVAKLQRQNASLKDRVSALEEQLAGATSSLARTGDCEQQISLLIERLGKEKERHKAVAEERNQLKDHLQDLEEEVEEYRTREEGWISGQERQQENEIAAQQRIAQLENDMRSCNAIVDNLTTQLTEAKHLNGVLQNQVKELKVSYSAQLDTVKESSSETVDQLRQEVEQLRSSLQNLSTEYDTRTAELEREVQNANMHAHQAEARLSEMALGSVNTLQDLRSELEDSQRSSATWKAEAQKARHEYTTLLEQYASLKRSRAAAEADLRDRLSYESNTVSALRKGIREWEDRYLALQESVGATQTEIEEQRKTIMQLEATIQKLKASGSDMLSPSQSEVVVSTNAPPVKASFSEPSLSGLPLDEILGRRLMPAPPLNPFMSMERPAWSDSRDRKTRERLEQEVVRQSAELERVRAAVADAEVWKAKYDRLQEEHDLLLQLYGQLEEDVSALRKNGAGILSADAAATSSTSGSVSAAAVP
MAHHHHHHMGTLEAQTQGPGSMTAQSGLLQGKRGLILGVANNRSIAWGIAKAAREAGAELAFTYQGDALKKRVEPLAEELGAFVAGHCDVADAASIDAVFETLEKKWGKLDFLVHAIGFSDKDELTGRYIDTSEANFTNTMLISVYSLTAVSRRAEKLMADGGSILTLTYYGAEKVMPNYNVMGVAKAALEASVKYLAVDLGPQNIRVNAISAGPIKTLAASGIGDFRYILKWNEYNAPLRRTVTIDEVGDVGLYFLSDLSRSVTGEVHHADSGYHVIGMKAVDAPDISVVKD
MAHHHHHHMGLLNTKPCSLIPAKEAFEREKKIYDKAILSFDGVNGYDVYNCSVPFTYDGKTYIFGRVEKKDEWVHSNSILFEKVGENRYRRHPTSITYNLEDPFVVKIHGEMVLGGTHVTKNGGKVSDYRCEFYHGTPLNLKYFSSGPSKMKDIRLVELADGKIGVFTHFRTEGSCLTGFATIDKIEDLTVEVINSAKLINHRPFGDAWGGPSQVYLLSSGLLGCISHHGYLLDQKDDIQLRIYACTSFVFDPATYDVYNFKIIGTKGCFPPCEPKLPHLADCAFVSGIEMRDDGKCNLYSGIGDVAEGCIVIDYPFEGYGKIVSDVAF
SAESPAFLSAKDEGSFAYLTIKDRTPQILTKVIDTLHRHKSEFFEKHGEEGIEAEKKAISLLSKLRNELQTDKPITPLVDKCVDTHIWNQYLEYQRSLLNEGDGEPRWFFSPWLFVECYMYRRIHEAIMQRQVYSQ
MLPEKSEIVVIGGGIVGVTIAHELAKRGEEVTVIEKRFIGSGSTFRCGTGIRQQFNDEANVRVMKRSVELWKKYSEEYGFSFKQTGYLFLLYDDEEVKTFKRNIEIQNKFGVPTKLITPEEAKEIVPLLDISEVIAASWNPTDGKADPFEATTAFAVKAKEYGAKLLEYTEVKGFLIENNEIKGVKTNKGIIKTGIVVNATNAWANLINAMAGIKTKIPIEPYKHQAVITQPIKRGTINPMVISFKYGHAYLTQTFHGGIIGGIGYEIGPTYDLTPTYEFLREVSYYFTKIIPALKNLLILRTWAGYYAKTPDSNPAIGRIEELNDYYIAAGFSGHGFMMAPAVGEMVAELITKGKTKLPVEWYDPYRFERGELRTAALQMG
MGSSHHHHHHSSGEDRYKEKLLQKAKAEGVESIEELKKRLADQIEEKKKELNKIDPLRELEQHLNAGSRIHTNKEHKTTKMSNKSNEKSGNVLPKDKPYKTLDDYLKLDKIKDLSKQEVEFLWRAKWSNRDDSLVAVVPYVKTFQGMYKYAVKNPLFVLPLPRENAADGNKADKDSVPVELQYVQWQFAGPNTVHCLITSLAEYKLHQDFAKPHTTIQFHLDLANDKDMVLMNGQVESDSNVSLQDAQLLLLNVQRFYGAMGSETSIAKERIQLLEDFNKGSQNFDINKLIQLAQSMEN
HMVTLYTSPSSTSCRKARAWLEEHEIPFVERNIFSEPLSIDEIKQILRMTEDGTDEIISTRSKVFQKLNVNVESMPLQDLYRLINEHPGLLRRPIIIDEKRLQVGYNEDEIRRFLPRKVRSFQLREAQRLAN
GSLKCILLNQAEELPIEFLPKDGVYGKGKLFDSRNMEIENFTESDILQDARRAAEAHRRARYRVQSIVRPGITLLEIVRSIEDSTRTLLKGERNNGIGFPAGMSMNSCAAHYTVNPGEQDIVLKEDDVLKIDFGTHSDGRIMDSAFTVAFKENLEPLLVAAREGTETGIKSLGVDVRVCDIGRDINEVISSYEVEIGGRMWPIRPISDLHGHSISQFRIHGGISIPAVNNRDTTRIKGDSFYAVETFATTGKGSIDDRPPCSHFVLNTYKSRKLFNKDLIKVYEFVKDSLGTLPFSPRHLDYYGLVKGGSLKSVNLLTMMGLLTPYPPLNDIDGCKVAQFEHTVYLSEHGKEVLTRGDDY
MSLSGMELSYRRSDLIFKRPAGTSRGVLTSKPTWFVRLDIDGHGGQGEVSLIPGLSLDPEEQIGRELDLLARRLRAEEPIRLRQFLAERGGADFSDYRSVLTDIAGILDSWQVSTDGRFPALRFALEMALLDLLSGGRQEWFASDFTRGEKRIPVNGLIWMGEAAFMQEQIEAKLAEGYGCLKLKIGAIDFDKECALLAGIRESFSPQQLEIRVDANGAFSPANAPQRLKRLSQFHLHSIEQPIRQHQWSEMAALCANSPLAIALDEELIGLGAEQRSAMLDAIRPQYIILKPSLLGGFHYAGQWIELARERGIGFWITSALESNLGLAAIAQWTALYQPTMPQGLGTGQLYTNNLPSNLAVDGGLLGVSEGHHHHHH

Soluble on expression in E. coli, not soluble:
MGSDKIHHHHHHMTEAAEAGNRGFEDYYVNIGFTPDRLVSMLSLTGLSSVHSVVAFYDDRPAGFILNGIRMIGGKQVAWNGGTAVVPELRRQGIGQKLMAATVECYEEQGVELATLEAFRINERAIALYETFGYHIVDQLCFLQHIGALETSFRSKSVGENDYRVARGTAHDVRLLSFYQHTAPWRTQWFALRGGQSILVKDALNHTIGYALYERVFDGEGSLASIVLYQCEAAPGRDDADEIVREALDALFAPHDEPCKRTTFNMPRANERVVRILQEAGFTDAHTADGIPFEQVYMVRKGKDDR
MGSDKIHHHHHHMNMFLGEGWQVKPAGGATGEAYIAEQGEQRLFLKRNSSPFLAVLSAEGIVPKLLWTKRLENGDVITAQRWVYGRELKAFEMKEPNVAHLLAKIHHSVELLDMFKRMGNDMLTPQRIIDDLKASMKRHECDDLLFQKGLKFLQTQQEAVNQEQYVVCHCDINHNNWMMSDAGELYLIDWDGATVADPALDLGLLLYSYVPRHEWKTWLANYGLEMSDHLLLRMHWYVVSQTISVMLSNMDRGKHAEAETWQDFLKTLLDDSF
MEEVSSEMEVEVQNRQLSDSSPAQNVKKFGLKNSIQTNFGSDYVFQIVPKIDWTAIAVSLSTNTVKLYSPVTGQYYGECKGHSDTVNQIAFSSDSAASPHVLHSCSSDGTIRSWDTRSFQQVSRIDTGNDQEIFSFSYGGAADNLLAGGCKEQVLLWDWRNSKQVACLEESHMDDVTQVHFVPNKPNKLLSASVDGLICLFNTEGDINDDDHLESVINVGTSIGKIGFLGDGYKKLWCLTHIETLSIWNWEDGSCEVNLEKARELASDSWTQDNVDYFVDCHCPGGEDLWVIGGTCAGTVGYFPVNYKQPGSIGTAEAILGGGHIDVVRSVLQMPGEYGGAAGLFGWTGGEDGRLCCWKSDEDATEINRSWTSSELVVKPPRNRKKNRHSPY
MGSDKIHHHHHHMRVSQRVVMSMTTPIDQFKGKQLDIINWWRRYPDKQTIIADGAVRSGKTFAMSISYVLWSMIVFDREQFGIAGKTIGSLRRNVIRPLKQTLQQVGFSVVDRRSENMLEISLDGRTNLYYLFGGKDESSQDLIQGITLAGMFFDEAALMPQSFVNQATARVSVTGGKYWFNMNPEGPYHWFKTDWIDQADDKRALRLHFVMTDNPSLSDEVIDRYEHMYSGVFYQRYILGQWVLADGIVYDNFDKDEMVSNPSQQPSRYYVSVDYGTQNPTVFLLWGKCGSVWYCLKEYYYDGRHSSRQKTDDEYARDFSQFVGDIRCEVIVDPSAASFIVKLRERRYRVIKADNDVLNGIRETQTAMNSGEIKFTPGLTNLFKEFASYVWDDKASQKGEDKVVKAHDHAMDAMRYFVMQVIKRRNAAHTFKNTSKYF
MVAWSIVDYGSGDEVPGADAALVLGAAAWGNKPSPVFRERINHAVKLYQSGKVRWIVFTGGTPEPGYPAEADVGREFAARQGVPMTAMLVENQSRTTWQNLSNARDLGNQFGIRSYLLVSDPLHMRRAVLMAGDLGLRAYPAPTQSSRFRTLASWSRFLARETWLYVGYRVFRQLSLEHHHHHH
MPRPDNVPVYTMRQLAAFVAVAETGTISGAAERMHLSQSALSAAVTDLEKALKAQLCVRRRARGVQLTPTGEAVLSRARALLQQAGELQSDASGEGGVVAGPIAVGCYPALGPTILPSMLYAFTAEYPRASVEFREDTQNRLRTQLEGGELDVAIVYDLDLSPEWQTVPLMTREPMVVLGAEHPLAGVDGPVRLADLAEHPMVLLDAPPSTNHAMDVCREAGFAPRVAYRTANFETARAFVGRGLGWTLLLQRPRVDVTYEGLPVVVKPIAEPKPASVAVVVAWHQEATLSRVARAFIRFVTA
LKQRRKIANEVKIKNTLLEYAQQITQMGTFEYNVFTNTLFWSNEMYNIFELDRSVIPEINFIDSLIKEESEITHNRRKKNFQPGASYSDELKIRTVNGNEKVLISNGYVVNEENGLVVHGAIIDIT
VKTGLYSLLGLIMRSALIDNFIESLNRSKYFHVVCSDPKPICNFIEKNLVRGATIVNAKGSFTGDNKYIILTVLSPSQAVKLRNFIKENSPGAFLLISNTSEIIGKGFHSV
EAPLLYGDSSPEIVLVGHGSTYGVIKEIVDIFSKDKKIAMMHFSQIYPFPERDRFDYIEFLKNANLVISVENNATGQFAKLMRAETGFEFARQILKYDGRPFTIEKLKEEIDACL
